Results on one substance are retold here after paper doi:10.1101/2023.02.07.527441.

The experiment has as its target PmScsC-EcDsbA chimera (Proteus mirabilis | E. coli) (UniProt P0AEG4). Put plainly: AUC.

Turning to “PmScsC-EcDsbA chimera (from UniProt P0AEG4 20-208) (enzyme)”, the stoichiometry N came to 3.

Broadly, the stoichiometry N is the number of molecules, sites or subunits per partner or assembly.
